Experimental data taken from patent US6987169.

Molecular target: rSK2 small conductance, calcium-activated potassium channel (rat), P70604
Sequence (P70604 whole entry): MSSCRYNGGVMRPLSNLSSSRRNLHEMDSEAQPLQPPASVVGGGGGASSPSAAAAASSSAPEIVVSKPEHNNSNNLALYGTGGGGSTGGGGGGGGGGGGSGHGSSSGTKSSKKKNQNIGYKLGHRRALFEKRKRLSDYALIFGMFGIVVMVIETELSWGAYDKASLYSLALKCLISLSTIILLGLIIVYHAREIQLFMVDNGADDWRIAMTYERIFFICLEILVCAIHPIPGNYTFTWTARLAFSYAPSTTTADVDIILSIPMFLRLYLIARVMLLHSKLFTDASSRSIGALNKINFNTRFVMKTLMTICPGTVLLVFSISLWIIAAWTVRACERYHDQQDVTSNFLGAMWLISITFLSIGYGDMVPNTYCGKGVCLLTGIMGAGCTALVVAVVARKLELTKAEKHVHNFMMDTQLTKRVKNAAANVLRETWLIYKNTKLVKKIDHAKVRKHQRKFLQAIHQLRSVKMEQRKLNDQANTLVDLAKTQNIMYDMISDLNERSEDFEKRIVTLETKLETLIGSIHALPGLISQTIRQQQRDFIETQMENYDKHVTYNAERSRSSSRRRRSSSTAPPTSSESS

In the case of CNCKAPETALCARRCQQH (modifications not checked) [apamin, P01500 28-45], the Kd is reported as 63 µM.
